Here are results for 19 sequences from a protein production outcome set (Wang et al. 2014).

A short description of this data set: label from the status in PepcDB records.
Regarding “MNPLKAGDIAPKFSLPDQDGEQVNLTDFQGQRVLVYFYPKAMTPGCTVQACGLRDNMDELKKAGVDVLGISTDKPEKLSRFAEKELLNFTLLSDEDHQVCEQFGVWGEKSFMGKTYDGIHRISFLIDADGKIEHVFDDFKTSNHHDVVLNWLKEHA”, the protein production entry is “not failed”. The result for “MNPMAIISITAFVVALVSGVYIFVKNPESRFNRALLLFSALIAYLSLTDFGLYISESYMMADFWVRMGFLWPIVVPVILHMVLLFTGRRPTMPLLAVIYAPAVVIAALELTTDLITAGPTMTSWGWTFSAAENSLPYQISNIWGFIIASVAIILVALHWRSSRGSDRTQAHYLLTGLILPVLAGVLTDLVLPAAGMAVPSLTDPSAALGVSIIAYGVMRFRLPILSPLNAAMDIVRNMNTFLIITDLGLNIHYVNPATERLTGRRAAEFSGRKVTEVLKFDELSTGSIMESRLRGKDEWIPVIVSAGHVHGSGGEHLGLLFTGSDMRPILEMEEKLRRREDRLVLLTEHMADGLGEFDRDFNFRYLSPSVKKITGYDHEMLTGMSALDFMDYLHPDDTEEVKKLILTRGEGHRATFRIRRPDGNYRWVEYVDRPIRTDGDIEGYVFGLRDIHEHKLAEEALIVSKEKFRELFRNMRSGIIAVESDGKGFRVKSMNPAAERMEGVSCAAIQGMDLQEALPEIWNSPIRRALQEIRETGEAIHCPEVECGEGWFDVHLHQLSTGEVVIICTDITLRKQYEDELRASLREKEALLREVHHRVKNNFQVISSLINLQLDDAEDPAPLRDLQSRIQSMALVHELLYESEDLTSIDMGRYIERLTSSIVNSHHNGEIEVEVAVGDITLPLETAIPLGLIINELVTNSFKHAFTSGGMISVELEEHGGEFTLTITDNGVGLPPDFIIEDSDSLGLRLVAGLVDQIDGTLEVSGEDGTRFRLTFGVVPYRRRV” reads “failed”; that for “MNPTAGKTSATGEQMASTSADTYSPSRDDFAAMLDESFAGGNLQESSVVKGKVVAIEKDMAVIDVGLKTEGRVALREFSGPGRDSEIKVGDEVEVFLDRIENALGEAVLSRDKARREESWGKLEKAFQNNEKVNGVIFNQVKGGFTVDLDGAVAFLPRSQVDIRPIRDVAPLMNNSQPFQILKMDRRRGNIVVSRRTVLEETRAEQRQELVQNLEEGQVIDGVVKNITDYGAFVDLGGIDGLLHVTDIAWRRVNHPTEVLSIGQTVKVKIIKINHETHRISLGMKQLLDDPWQGIEAKYPLGARFTGRVTNITDYGAFVELEPGIEGLIHVSEMSWTKKNMHPGKIVSTSQEVEVQVLEVDSVKRRISLGLKQTMRNPWEVFVEGHPTGSVVEGEVKNKTEFGLFLGLEGDVDGMVHLSDLDWKLPGEQVIDNYKKGDMVKAVVLDVDVEKERISLGIKQLEGDPFAEPGDVKKGAVVTCEVLEVKESGIEVKIAGTDFTTFIKRSELARDRNDQRAERFAVGEKVDARVIQFDKKARKVQVSIKALEVAEEKEAIAQYGSSDSGATLGDILGTALKNRDSK”, “failed”.

In the case of “MNQAMDTKQIAPFTLALPEGEALPLVCDSPHSGTFYPADFGAVVAPERLRGGEDTHVDALWEAVPRVGGTLLAATFPRVYIDPNRMLDDIDPAQLEGPWPTPLAPGEKTRLGYGLIWSNVDAATPIYDRKLTVAEVQRRINRYYRPYHAALTEAVEGAYQRFGAVWHLNLHSMPNNAYERLKIQSPRPLADFVLGDRDGTTCEPGLVDLVERELREKGYTVARNDPYKGVQLIAQIGRPAERRNSLQIEIRRPLYMEEGTRERNEGFATLQRDLTLLTLRIAEYVRRGV”, the protein production entry was “not failed”. The result for “MNQLTQYTITEQEINQSLAKHNNFSKDIGLPGVADAHIVLTNLTSQIGREEPNKVTLTGDANLDMNSLFGSQKATMKLKLKALPVFDKEKGAIFLKEMEVVDATVQPEKMQTVMQTLLPYLNQALRNYFNQQPAYVLREDGSQGEAMAKKLAKGIEVKPGEIVIPFTDLEHHHHHH” reads “not failed”; that for “MNQNNHFRLTLSTLLQQCQQDITSLPTAMRAVFSWQRGLNELKTLRRTTKLMMSTMLIVTIIGFILGRDYSLHGWIGLLTGITVVINLILVDQGRLTNYSWGIIACAAWLTTAITNRLIGDIASQSFYLIMQFVGITVWHRKMAAQPDASELTGRKLSKLAGCAWFALAVLVYAIVLHFSKQLNGNQIYLDATLLPLGIVGSVLMVNGYRSQWVAWITLDVINVIIWFNQLKGFSPAAASMLALQLVMLANALYGAYLWFFGQNTQQDKLDTH”, “failed”; that for “MNQNQNKKTKIVALSMMNSQTSGNPSRGTTKFESYTFDYWQYIDTLVYWGGSSGEGIIVTPSADVIDEAHSNGVPVLGTIFLPPKEYGGKVDWVKTMLKKDEQGQYPFASQMVKVAKTYGFEGWFINEETQGLNADDAANMKALIQQVKKEDSSLQIMWYDAMTKDGKVDWQNQLNDQNATFVQDKAADAMFLNFWWTQNNLADQKLLEKSNLYAKNHNIDPYNIYAGIDVQAKDVQTPVKWNLLEKGNQATQTSIGLYAASATYTNASNWDDFQNRESAFWVNQKADPRQVDHSVNESWTGLSKYVLEKSAISGNEFNTNFNLGNGYNYFKAGQKISEMDWNDRSLAGILPSYRWIIDNEGKNKISPSFDFANAYNGGNSLKFMAEHLDAGKSSNITLFASDLKIAMGAKFSVSMRSDQALKVSAILELANGQKVSIAGDKSLTENWSKLEHHHHHH”, “not failed”. The entry for “MNQQDIKQKVLDVLDHHKVGSLATVAAGAPHSRYMTFFHDGLTIYTPTSKETHKAEEIENNPNVHILLGYDCEGFGDAYVEVAGKAKINNSAELKDKIWSSKLERWFDGKDDPNLVILEIEPEDIRLMNAGEKTPVSLEL” is “not failed”; for “MNQQLLAKTFVELADNLVADFDLIDFLRLLTDRCVGMLDASAAGVLLADRNGELRVMAASDEQVRLLELFQLQNDEGPCLDCFRTGAPVTVPDLSAVTARWPRFAVQARRSGFGAVQALPMRLRDEVVGALNLFRATPGPFDPAATPLAQALADVATISLLQQRTAHRSTVLNEQLQTALN” it is “not failed”. Regarding “MNQRLDHYLKNTNQCETRSKAIDLIKRGRVFVNNFQVLKPSFLVKQTDSVEIKNDEMYFVSKGGYKLLKIIKEINLIIKNFVIADLGSSTGGFTDCCLQLGAKKIYAIDVGVDLLHPSLKKSYKIINYEKTNVKNLDKSYFLEDLDLIVGDLSFISLEQIFPIIKKISSPKTLLLLLIKPQFELGKDVASKYKGLIQNQKLQQLAINKIINLAKNYDFECKHLTPTDIFDEKKQNQEYMIFLQKHEK”, the protein production entry is “failed”.

Regarding “MNRFLTSIVAWLRAGYPEGIPPTDSFAVLALLCRRLSHDEVKAVANELMRLGDFDQIDIGVVITHFTDELPSPEDVERVRARLAAQGWPLDDVRDREEHA”, the protein production entry is on record as “not failed”.

“MNRHISFERLHNFRDLGGYTTADGRVVRWGRLFRSDSLGKLTGEEWERFLALGIGTVIDLRYPWEIDAKGRVPEHPAFTYHNLSIEHRPYDQAGLGPDVETGPFLAEKYMEVAHDGVKELRQVVEVIAAVATSTDESVVFHCASGKDRTGLVAALVLALLGVPESQIVEDFTLTELATERLLADWRADHPGQEPTWPGYGRAPADVMRLFLDALTHQHGSMADYARDLLRIDEGLIAALRRNLLEPAAEPELTFRRADHRDLPELVRLRDSAARWQIARGIDQWKPGQLGEDHFRARLADGEIWIATLGPTGPTAGAWELWWDDPAAWGPQPPSAGYVHRLMTDRRTAPPGTGRLMLAEAERRIAETGRTLCRLDCLASNPRLRQYYETAGYTVVGEQSSKDGGLGNTYAVTLLEKTVPEALTPRSTKPAR”: the protein production result was “failed”. The entry for “MNRKFTARGPKRIEWAPHSCYHRKAHGFRPGTLSARHRSVRTPRSIVGIRTPHPHPNPTDHDFATMTIRQSALFALALGTLGLLALSGCSAGNPNMSAAEDAMEQERYERALANVDSAIAQDSANAQAYAMKARILRQMADSTAPPEAYKQRYRQARQAEEKAIKFDPGRRSDIKNQRELAFIQEFQKGADAFNRAQQSSQKSDYLRAAAYFGAAGAIRPDSTGPIRNEAFARLQAARLEGGDQGMQEMSNVIPILERYLKKEDEPEKDVYSILSQLYRQGDQPERALEVTERALDDLSSRPTHFRIQGTRGLSYTGTIEAGGTSRQVEGTTPDRIELSTSDGMVTGTFRKQDGGKKQTKGRLQVGLYTQGTQVANSRTTALEEITISEDLSSVTPLAELQNQRLSALNSTGNTEKAMQAYRQQIERNPENARYRYNYGSLLLNSDRYDEAIEQLSEAVKLDSDDPKKQYNLGAAYLNKGVVLQDSLVSVRDSVMAQNRKPTQEEAQMIEDLDEQRLQFFQNAIPPLERARQLSGANGRYRQNACSALLQAYVQTEQTDKAEDVKQCAGAGGNTSGGSGGR” is “failed”; for “MNRKMFGELISEAIAMFIIIALGESAAAMYILYDPSPYQNAYWGLCICWGLAVTIAIYVTASVSGTHANPAVTLALALYRGFPWKKVLPYWAAQVIGAFIGAMIVYQLYSPVIDYYNHIHQLTRDAGGAAGVFFTSTGMAITPIHALGDEIILTAFLVFGIFAITERFNEAAPTANSGALVIGLLVATIGACMGYLEGWAINPARDLGPRLFAFLAGWGESAFPGKDHYWWIPIIGPLIGGVMGATAFQCLIYPFLPARVQAKQQAAILLHRKHP” it is “failed”. The result for “MNRLLNEKVEEFKKGVLKAGWFIEKMFRNSISSLVERNESLAREVIADEEVVDQMEVEIQEKAMEVLGLFSPIGKPLLTVTAGIRVAELIENIADKCHDIAKNVLELMEEPPLKPLEDIPAMANQTSEMLKFALRMFADVNVEKSFEVCRMDSKVDDLYEKVREELLLYMMESPKYVKRALLLLEIAGNIEIIADYATNIVEVSVYMVQGEAYKCYHDELLLFKKSGGVLFESSD” reads “not failed”; that for “MNRNLLLFASGSFVSLIGTRIYQVALAWWLYSKTGSSEYVGLFMISSFLPAIIVSPFAGTVVDRHSRRNMMVVMDILRGVLFMYLFLMEYFSELTMALLLIVTVLVSVFDSFFNPAVDSLLPDLVRKENLVRANSLYRLLKNLSKILGPALGSLLLKVVGLAGVILINSLSFLISGIFEMFIKVEEKHLKKVSKERNMWQDIKSALLYIRSVRFILVTILVIAIMNFFTGSMHVLLPEHVSKLGKSEWVYGTLMSMLSFGGLIVTFLMATIRTRASVKTLGLNLVGYGLAVFVFAMTGNHWLMFAMYFLIGIFQTLFNINVITLLQLAIPEEMRGKIFSLISAVSFSLLPVSYGFFGFLSSYVATAHIFITTSMALIAGGVLISLQRFEG”, “failed”; that for “MNRSANTNAVLLLLLCAFFWGASFPVGKHALGEVHALTLVIWRFAIAAACLFAFIKWKRIPIPELKAKQWLWVVGVSIVGVGGLNLGLFTGLAQTNASNGALIMALSPLTTSLIGSLLQRKLLTRGAVFSLVVCLSGVLLVLTNGELKRLLSFEFNHGDQIIFLGMLCWSLYTYLTQGISRWMPMIPYTFIGMLAGLGVISVVAAFSAEAHPVQESLAISQIVLADLLFIGVFGTVGGYLLWISGVKQLGAANASLFFNFVPIFAALTAVTFGQNVASLQLLGMAIVISGLLLPRLTHWRQQRFARMG”, “failed”. Turning to “MNRSNQDITQPTAIIAVVGVGAEQGIGAAVCRRFAQEKFKVYVAGRTLNKVEKVAAAIHRQGGQAVAYVLDAENEQQLQTLFDHLNDQPEALAAVIHNVGGNIPSIFLQSSLKFFSQMWRSTFLSSVLVAQRSLSIFQKQQQGTLIFTGASASLRGKPFFAAFSMGKSALRSYALNLAELYRSQNIHVAHVMVDGMVDGDRVNKALWGLGRLARLTRGTGGLNIDAIAENYWMLYQQNVDLWTHELDLRPYQEKF”, the protein production entry is “failed”. The result for “MNRVEPPYDVKEALVFTQKMAQLSKALWKSIEKDWQQWLKPYDLNINEHHILWIAYQLNGASISEIAKFGVMHVSTAFNFSKKLEERGYLRFSKRLNDKRNTYVQLTEEGTEVFWSLLEEFDPTRNAVFKGSQPLYHLFGKFPEVAEMMCMIRHIYGDDFMEIFETSLTNIDNDFESVNGKLKKKAKDSAADEPAEELEPVNS” reads “not failed”.
